Data: article PMC8147279

Experiments:
[1] = target: β-sliding processivity clamp (Escherichia coli) (UniProt P0A988)
[2] = target: β-sliding processivity clamp (Escherichia coli) (UniProt P0A988); remark: listed apart in the source
[3] = target: β-sliding processivity clamp (Escherichia coli) (UniProt P0A988); remark: listed apart in the source
[4] = target: β-sliding processivity clamp (Escherichia coli) (UniProt P0A988); remark: listed apart in the source
[5] = target: β-sliding processivity clamp (Escherichia coli) (UniProt P0A988); remark: listed apart in the source
[6] = target: β-sliding processivity clamp (Escherichia coli) (UniProt P0A988); remark: listed apart in the source

Sequence of pol V Mut WT (UmuD’2C-RecA-ATP/ATPγS) (P04152 whole entry): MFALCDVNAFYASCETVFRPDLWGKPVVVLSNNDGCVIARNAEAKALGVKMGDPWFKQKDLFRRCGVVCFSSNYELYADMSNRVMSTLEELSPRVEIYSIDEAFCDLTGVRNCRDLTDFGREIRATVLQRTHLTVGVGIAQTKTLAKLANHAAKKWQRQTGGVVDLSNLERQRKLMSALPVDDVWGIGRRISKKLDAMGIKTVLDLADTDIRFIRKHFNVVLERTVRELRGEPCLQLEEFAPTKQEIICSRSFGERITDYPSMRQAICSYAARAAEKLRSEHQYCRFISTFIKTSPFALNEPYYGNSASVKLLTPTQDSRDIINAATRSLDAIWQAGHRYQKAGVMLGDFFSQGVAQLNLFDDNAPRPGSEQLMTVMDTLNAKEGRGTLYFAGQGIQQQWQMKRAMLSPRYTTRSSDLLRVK
Sequence of pol V Mut WT (UmuD’2C-RecA-ATP/ATPγS) (P0AG11 25-139): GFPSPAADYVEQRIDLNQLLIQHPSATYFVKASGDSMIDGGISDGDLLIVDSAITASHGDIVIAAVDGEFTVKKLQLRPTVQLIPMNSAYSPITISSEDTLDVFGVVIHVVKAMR
Sequence of pol V Mut WT (UmuD’2C-RecA-ATP/ATPγS) (P0A7G6 whole entry): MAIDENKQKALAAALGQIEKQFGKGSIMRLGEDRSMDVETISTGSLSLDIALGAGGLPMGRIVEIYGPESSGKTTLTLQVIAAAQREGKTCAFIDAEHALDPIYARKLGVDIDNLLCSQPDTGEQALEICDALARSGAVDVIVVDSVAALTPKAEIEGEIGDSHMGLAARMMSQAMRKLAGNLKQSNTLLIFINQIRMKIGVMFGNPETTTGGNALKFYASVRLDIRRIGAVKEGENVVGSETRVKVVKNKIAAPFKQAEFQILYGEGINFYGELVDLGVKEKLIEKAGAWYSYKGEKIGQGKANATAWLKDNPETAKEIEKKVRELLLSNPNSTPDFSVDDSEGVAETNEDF
Sequence of β-sliding processivity clamp (Escherichia coli) (P0A988 whole entry): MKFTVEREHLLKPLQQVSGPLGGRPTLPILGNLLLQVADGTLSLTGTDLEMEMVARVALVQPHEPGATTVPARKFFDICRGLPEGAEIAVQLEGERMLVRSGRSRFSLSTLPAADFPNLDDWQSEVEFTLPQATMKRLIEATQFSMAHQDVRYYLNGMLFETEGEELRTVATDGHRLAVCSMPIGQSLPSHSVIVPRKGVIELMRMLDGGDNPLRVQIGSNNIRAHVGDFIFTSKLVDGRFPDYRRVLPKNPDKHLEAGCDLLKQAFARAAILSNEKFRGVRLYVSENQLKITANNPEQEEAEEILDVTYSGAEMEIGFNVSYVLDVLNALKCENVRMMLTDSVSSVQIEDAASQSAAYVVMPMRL

Row | Substance | percent of primer extended (% PE) on undamaged circular p/t DNA by pol V Mut WT-ATPγS with β-clamp and γ-complex, 15-120 min (~5% at 60 min without β) [1] [%] | percent of primer extended (% PE) on undamaged circular p/t DNA by pol V Mut WT-ATP with β-clamp and γ-complex, 15-120 min (about 1% without β) [2] [%] | translesion synthesis past an abasic site 3 nt from the primer end, % PE, pol V Mut WT with dATP, ATPγS and β/γ, up to 120 min [3] [%] | fold increase of DNA elongation rate by β on undamaged DNA, pol V Mut WT-ATP [4] [fold] | percent of primer extended (% PE) on undamaged circular p/t DNA by pol V Mut E38K/ΔC17-ATP with β-clamp and γ-complex, 15-120 min (10% at 120 min without β) [5] [%] | percent of primer extended (% PE) on undamaged circular p/t DNA by pol V Mut E38K/ΔC17-ATPγS with β-clamp and γ-complex (γ-complex stays on β with ATPγS) [6] [%] | fold increase of DNA elongation rate by β on undamaged DNA, pol V Mut E38K/ΔC17-ATP [4] [fold]
1 | pol V Mut WT (UmuD’2C-RecA-ATP/ATPγS) (from UniProt P04152 1-422; P0AG11 25-139; P0A7G6 1-353) (complex) | > 40 | 5 | 35 | 5 | – | – | –
2 | pol V Mut E38K/∆C17 (UmuD’2C-RecA E38K/∆C17-ATP/ATPγS) (from UniProt P04152 1-422; P0AG11 25-139; P0A7G6 1-353) (complex) | – | – | – | – | 77 | 42 | 7
